± gives the uncertainty stated by the source.
Experiment: self-splicing fitness, log relative to wild type (ln ratio); higher = more splicing; Tetrahymena group I intron in knt gene, E. coli kanamycin selection, DiMSum; sequences stand for … in CUCUCU…GGAGGGAAAAGUUAUCAGGCAUGCACCUGGUAGCUAGUCUUUAAACCAAUAGAUUGCAUCGGUUUAAAAGGCAAGACCGUCAAAUUGCGGGAAAGGGGUCAACAGCCGUUCAGUACCAAGUCUCAGGGGAAACUUUGAGAUGGCCUUGCAAAGGGUAUGGUAAUAAGCUGACGGACAUGGUCCUAACCACGCAGCCAAGUCCUAAGUCAACAGAUCUUCUGUUGAUAUGGAUGCAGUUCACAGACUAAAUGUCGGUCGGGGAAGAUGUAUUCUUCUCAUAAGAUAUAGUCGGACCUCUCCUUAAUGGGAGCUAGCGGAUGAAGUGAUGCAACACUGGAGCCGCUGGGAACUAAUUUGUAUGCGAAAGUAUAUUGAUUAGUUUUGGAGUACUCGUGGUCG
In short: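 Pooled colonies went to amplicon sequencing on an Illumina HiSeq 2500 after six replicate transformations. The plates were LB agar with 100 μg/mL carbenicillin, 50 μM IPTG and 0.2% rhamnose, with or without 25 μg/mL kanamycin, incubated overnight at 37°C or 30°C. The E. coli BL21(DE3) library had all eight P1ex-region intron nucleotides randomised, the intron placed in the knt kanamycin-resistance gene on pET-22b(+). DiMSum fitness is the error-weighted combination of replicate fold changes, kanamycin against none, normalised to wild type.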

Row | Sequence | self-splicing fitness (ln) (30 °C) | self-splicing fitness (ln) (37 °C)
1 | GGCAAGCAAUAUUACGGGAG | -2.47 ± 0.15 | -1.44 ± 0.18
2 | UGAUAGCAAUAUUACGAAUG | -1.19 ± 0.12 | -1.14 ± 0.16
3 | UUUCAGCAAUAUUACGUGAG | -0.129 ± 0.054 | -0.623 ± 0.07
4 | GGCGAGCAAUAUUACGGACC |  | -0.87 ± 0.4
5 | CACAAGCAAUAUUACGCCAA | -2.76 ± 0.27 | -2.01 ± 0.21
6 | UCUGAGCAAUAUUACGAUCA | -3.84 ± 0.4 | -2.38 ± 0.36
7 | CAAUAGCAAUAUUACGUUGU | -3.27 ± 0.14 | -2.12 ± 0.17
8 | UACAAGCAAUAUUACGGAAA | -2.07 ± 0.24 | -1.99 ± 0.27
9 | CAUGAGCAAUAUUACGUGAA | -3.86 ± 0.3 | -2.53 ± 0.29
10 | CGCUAGCAAUAUUACGAGCG | -4.02 ± 0.39 | -2.69 ± 0.39
11 | GGCUAGCAAUAUUACGUUAA | -1.24 ± 0.091 | -0.642 ± 0.12
12 | UAUGAGCAAUAUUACGCACC | -1.68 ± 0.49 | -0.807 ± 0.36
13 | AUCUAGCAAUAUUACGAGUA | -2.58 ± 0.27 | -1.53 ± 0.18
14 | CAGCAGCAAUAUUACGUCUG | -3.11 ± 0.14 | -2.85 ± 0.22
15 | CGCUAGCAAUAUUACGCGAG | -2.93 ± 0.28 | -2.56 ± 0.21
16 | AGAUAGCAAUAUUACGAUGA | -1.5 ± 0.13 | -0.349 ± 0.097
17 | UUUGAGCAAUAUUACGUGAU | -2.95 ± 0.33 | 
18 | CACUAGCAAUAUUACGCACU | -1.54 ± 0.11 | -0.108 ± 0.11
19 | UUGCAGCAAUAUUACGAAUA | -1.66 ± 0.1 | -0.197 ± 0.13
20 | CGACAGCAAUAUUACGACCC | -1.31 ± 0.19 | 0.117 ± 0.23
21 | CGUGAGCAAUAUUACGCUCA | -2.84 ± 0.31 | 
22 | CUUCAGCAAUAUUACGGACU | -2.26 ± 0.16 | -2.66 ± 0.27
23 | GCGGAGCAAUAUUACGCAAG | -2.73 ± 0.38 | -2.3 ± 0.31
24 | GGUUAGCAAUAUUACGGUCG | -0.323 ± 0.13 | -0.0539 ± 0.18
25 | AGUGAGCAAUAUUACGAACC | -0.739 ± 0.16 | -0.869 ± 0.24

Row | Sequence | self-splicing fitness (ln) (30 °C) | self-splicing fitness (ln) (37 °C)
26 | GUGAAGCAAUAUUACGGGGG | -2.67 ± 0.14 | -3.08 ± 0.14
27 | UACAAGCAAUAUUACGACGC | -2.93 ± 0.25 | -1.67 ± 0.23
28 | UCAGAGCAAUAUUACGUUGU | -3.38 ± 0.2 | -3.51 ± 0.35
29 | CAUGAGCAAUAUUACGAUAU | -3.32 ± 0.25 | -2 ± 0.31
30 | UUGGAGCAAUAUUACGUUCG | -2.23 ± 0.16 | -0.989 ± 0.17
31 | AAUGAGCAAUAUUACGCGGU | -2.93 ± 0.17 | -3.12 ± 0.32
32 | UAGUAGCAAUAUUACGCCAG | -2.8 ± 0.15 | -1.94 ± 0.15
33 | UAUUAGCAAUAUUACGAAAC |  | -2.53 ± 0.3
34 | CAGAAGCAAUAUUACGGGUC | -3.4 ± 0.29 | -2.55 ± 0.2
35 | UUGGAGCAAUAUUACGUCUC | -2.96 ± 0.33 | -2.41 ± 0.33
36 | GUGCAGCAAUAUUACGAUAG | -2.3 ± 0.22 | -2.21 ± 0.27
37 | ACAAAGCAAUAUUACGCUCC | -1.29 ± 0.16 | -0.526 ± 0.17
38 | GCAUAGCAAUAUUACGAAGU | -3.88 ± 0.28 | 
39 | AGAAAGCAAUAUUACGUGAU | -2.17 ± 0.069 | -1.25 ± 0.091
40 | CCGAAGCAAUAUUACGACGG | -3.76 ± 0.27 | -3.11 ± 0.29
41 | CGCGAGCAAUAUUACGUGUC | -3.46 ± 0.19 | -2.6 ± 0.2
42 | GUAUAGCAAUAUUACGCCCU | -0.766 ± 0.2 | 0.0529 ± 0.26
43 | GCCCAGCAAUAUUACGAAAA | -1.7 ± 0.1 | -1.87 ± 0.12
44 | ACGCAGCAAUAUUACGCUAG | -3.42 ± 0.22 | -2.33 ± 0.24
45 | AUAUAGCAAUAUUACGAUAG | -2.39 ± 0.22 | -1.51 ± 0.24
46 | UCUAAGCAAUAUUACGUCCG | -0.454 ± 0.15 | -0.55 ± 0.14
47 | GAAUAGCAAUAUUACGCCUG | -0.487 ± 0.14 | -0.504 ± 0.16
48 | UUCAAGCAAUAUUACGGAUG | -2.34 ± 0.14 | -1.7 ± 0.14
49 | ACAGAGCAAUAUUACGUCAA | -2.04 ± 0.21 | -3.16 ± 0.3
50 | UCAGAGCAAUAUUACGGCGA | -0.324 ± 0.072 | -0.417 ± 0.076

Row | Sequence | self-splicing fitness (ln) (30 °C) | self-splicing fitness (ln) (37 °C)
51 | UGCGAGCAAUAUUACGUAUC | -1.76 ± 0.16 | -2.37 ± 0.34
52 | AGCCAGCAAUAUUACGUUGA | -3.31 ± 0.13 | -2.04 ± 0.16
53 | CAGAAGCAAUAUUACGGACC | -3.56 ± 0.48 | -2.5 ± 0.46
54 | AGACAGCAAUAUUACGGAAG | -4.03 ± 0.3 | -1.94 ± 0.18
55 | UCGUAGCAAUAUUACGUCUA | -1.48 ± 0.1 | -0.978 ± 0.12
56 | GUGAAGCAAUAUUACGGAAA | -1.64 ± 0.11 | -0.16 ± 0.17
57 | CUGGAGCAAUAUUACGGUAC | -2.41 ± 0.18 | -2.84 ± 0.27
58 | UUAGAGCAAUAUUACGUAAC | -2.76 ± 0.39 | -1.73 ± 0.49
59 | CGUCAGCAAUAUUACGCCCG | -1.23 ± 0.17 | -0.0073 ± 0.24
60 | GAUAAGCAAUAUUACGUUCU | -1.8 ± 0.14 | -2.58 ± 0.29
61 | GAGGAGCAAUAUUACGGCGU | -1.72 ± 0.16 | -0.0856 ± 0.14
62 | AUAAAGCAAUAUUACGACCG | -0.25 ± 0.13 | -0.14 ± 0.18
63 | GAGCAGCAAUAUUACGAAUU | -1.95 ± 0.14 | -1.45 ± 0.15
64 | AAGAAGCAAUAUUACGUGCG | -0.93 ± 0.079 | -0.0711 ± 0.1
65 | AAGCAGCAAUAUUACGUGAG | -1.07 ± 0.045 | -0.437 ± 0.066
66 | UCGGAGCAAUAUUACGCGGA | -2.32 ± 0.33 | 0.916 ± 0.15
67 | UACUAGCAAUAUUACGCCAU | -2.57 ± 0.26 | -3.06 ± 0.33
68 | AUAUAGCAAUAUUACGUGUU | -4.26 ± 0.39 | -1.21 ± 0.18
69 | AUCUAGCAAUAUUACGUCUA | -2.83 ± 0.25 | -1.59 ± 0.21
70 | GCAAAGCAAUAUUACGGCCG | -0.0405 ± 0.18 | -1.41 ± 0.33
71 | AUCUAGCAAUAUUACGAUGG | -3.59 ± 0.2 | -1.75 ± 0.19
72 | UUUAAGCAAUAUUACGAUGC | -1.41 ± 0.37 | 
73 | GAGUAGCAAUAUUACGGGAC | -3.17 ± 0.35 | -1.41 ± 0.22
74 | GAGGAGCAAUAUUACGGAGC |  | -0.748 ± 0.26
75 | AGCUAGCAAUAUUACGAUAC | -3.44 ± 0.49 | -1.59 ± 0.28

Row | Sequence | self-splicing fitness (ln) (30 °C) | self-splicing fitness (ln) (37 °C)
76 | CGCAAGCAAUAUUACGAGAC | -3.4 ± 0.22 | -1.81 ± 0.21
77 | CAUCAGCAAUAUUACGGAUA | -0.862 ± 0.06 | 0.0386 ± 0.074
78 | GCUAAGCAAUAUUACGAAGA | -0.925 ± 0.087 | -0.138 ± 0.098
79 | CUAGAGCAAUAUUACGAAUC | -3.87 ± 0.36 | -2.07 ± 0.21
80 | CCAAAGCAAUAUUACGGACC |  | -1.51 ± 0.29
81 | CUAUAGCAAUAUUACGGUAC | -3.68 ± 0.28 | -1.51 ± 0.25
82 | UAUAAGCAAUAUUACGAAUG | -1.24 ± 0.087 | -0.222 ± 0.11
83 | AUGGAGCAAUAUUACGUUUU | -3.1 ± 0.36 | -2.05 ± 0.31
84 | CCAAAGCAAUAUUACGGCCU | -3.59 ± 0.18 | -3.33 ± 0.37
85 | GCGGAGCAAUAUUACGGUUC |  | -1.69 ± 0.4
86 | UCAAAGCAAUAUUACGGAAU | -3.53 ± 0.17 | -2.94 ± 0.23
87 | UGGCAGCAAUAUUACGCUAC | -3.85 ± 0.35 | 
88 | UGCCAGCAAUAUUACGUUGC | -2.93 ± 0.17 | -2.93 ± 0.18
89 | GGCGAGCAAUAUUACGUUUU | -1.35 ± 0.094 | -1.35 ± 0.14
90 | AUCGAGCAAUAUUACGUUUA | -2.49 ± 0.29 | -2.26 ± 0.37
91 | AUACAGCAAUAUUACGCCAU | -2.01 ± 0.13 | -0.757 ± 0.14
92 | UAUAAGCAAUAUUACGCAAC | -3.03 ± 0.4 | 
93 | AUCAAGCAAUAUUACGUAAU | -1.1 ± 0.056 | -0.247 ± 0.081
94 | AUGCAGCAAUAUUACGUCAA | -2.35 ± 0.19 | -0.997 ± 0.14
95 | ACUGAGCAAUAUUACGCCAG | -2.93 ± 0.49 | -2.78 ± 0.47
96 | CACCAGCAAUAUUACGCAAG | -0.716 ± 0.093 | -0.12 ± 0.11
97 | CUUAAGCAAUAUUACGAAAU | -3.41 ± 0.24 | -2.48 ± 0.26
98 | CCAAAGCAAUAUUACGCUUU | -3.57 ± 0.16 | -2.73 ± 0.21
